Reference: the supplement of paper PMC12042874
± gives the uncertainty stated by the source.

Assay: amyloid nucleation score (Sup35N fusion, yeast selection) (log enrichment); library NNK2; higher = more nucleation; inactive = no reads after selection
Summary of the method: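 The nucleation score, computed with DiMSum, is the log enrichment of output over input reads, centred on the mode score of non-aggregating sequences. Sequences with under 100 input reads were dropped. Reads were generated by Illumina sequencing of plasmid inserts from psi-negative yeast with Sup35N fused to peptides of 20 random codons, induced with 100 μM copper sulfate for 24 hours and grown 7 days at 30°C on medium lacking adenine and uracil.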

Row | Substance | amyloid nucleation score
1 | SFKRFQ | -0.347 ± 1.1
2 | LDVAGKVKASHKLRAWVWFS | 0.436 ± 0.8
3 | FFSLSQQYSRSVIVYAKLHL | -0.98 ± 0.54
4 | LDGFLLSISLRINKRLSSGR | 4.79 ± 0.061
5 | VLNITEIYFVG | 8.125 ± 0.051
6 | TSKWQRNLFGDGSLKEFTGE | -0.712 ± 1.1
7 | RIGCRRPRFDNEQQWARS | 5.62 ± 0.093
8 | TLGPL | inactive
9 | NRDFMCESVRNCTLALMIGS | inactive
10 | VAFFWIKFH | -0.807 ± 1
11 | IERPVRVHRYKT | inactive
12 | TPIRVFGNYNSFHFCTMSS | 8.302 ± 0.053
13 | QGRLSPY | inactive
14 | ANAAV | 1.12 ± 0.61
15 | NYSYMENYICQLACKTGEAG | 5.88 ± 0.084
16 | RLCAVITMVEVIYFSYYVWF | 0.013 ± 0.55
17 | LHILRA | 0.605 ± 0.47
18 | VYNTFLREFHS | 1.99 ± 0.13
19 | RHFYRSKMAMVYGFHTAFTG | -0.582 ± 0.34
20 | LFCTFKLRAMTFTSNKSRVV | 1.04 ± 0.43
21 | FFISLDRVMLTGLKLTCPLG | -0.266 ± 1.1
22 | VVQQLIRKITVFSLRLVLNK | 4.16 ± 0.073

Row | Substance | amyloid nucleation score
23 | VPIKALLPHSKFGNQSRFNY | 0.438 ± 0.4
24 | RMEVEFFVPW | 2.9 ± 0.11
25 | FEYIVVESVCRSWWNLVS | -0.051 ± 0.55
26 | FRLFVKNKGRELICDLWVCT | -0.024 ± 1
27 | DAFGRIGPNEKLYDGEDECW | 0.902 ± 0.22
28 | HESHHSALFDCLGWQVLVWL | 6.827 ± 0.049
29 | LNSSLLFHNLMVHH | inactive
30 | HTITNTL | -0.06 ± 1.1
31 | ITGTFF | 1.99 ± 0.084
32 | MHQSQVMSLSDPAAGKSFWV | -0.56 ± 0.79
33 | PPIRVYNLSSTYPMDMSSQR | -0.8 ± 0.27
34 | LMLGSWQDKMPSLLWLDLCV | 0.86 ± 0.52
35 | ILVLW | -0.022 ± 0.46
36 | LGSVLLRFRH | -0.469 ± 0.23
37 | LTFRAVSWTWCYPPELSSCS | 0.775 ± 0.49
38 | VDVPMNMIRWSQCNQ | 1.22 ± 0.59
39 | SYYISHYMSVWISLTDSGCY | -0.14 ± 0.56
40 | YMYFVFIRSSKSVMIKDVHC | inactive
41 | NSNFCCVGLCTNFAWFVCLM | 8.44 ± 0.064
42 | NMTVFT | -0.202 ± 0.22
43 | SLEFCLVWFSSMRRMCV | 0.673 ± 0.48
44 | VMTFMVTRTD | 6.111 ± 0.037

Row | Substance | amyloid nucleation score
45 | KSCGRLAAEYSPPRMACGHD | 1.18 ± 0.41
46 | FLLCIRLRVNNNVRNN | -0.763 ± 1.1
47 | SRHKFRSITFIEIHPMI | 0.012 ± 0.43
48 | NGAYNACNNTGYRTHAY | -0.818 ± 0.78
49 | INLRIVSPIDLIVRWEDPTW | -1.44 ± 0.33
50 | TWRFYTFLFEVFRRSEILKR | -0.97 ± 1.1
51 | FFTQGSCDTILRGLAFFTPR | -0.26 ± 1
52 | DSSGVGTRLDCKLCFENLID | -0.952 ± 0.47
53 | WVWGIGSFRRSFQCWWWFSN | -1.86 ± 0.73
54 | NTNVCSSRRNPVCMMVEVVR | inactive
55 | SYVIP | -1.06 ± 1
56 | SESDSTLRSTIDSRLCGS | -0.53 ± 0.55
57 | VMTYVEQVLGNVSVLIAIIT | 0.015 ± 0.33
58 | GCRDMIWVGL | inactive
59 | TITMFHYLRSLSGNSDYGLG | 2.31 ± 0.1
60 | SCSERLSMWLRED | 4.62 ± 0.047
61 | CILRGLVASSNNSGSIGAMK | 0.361 ± 0.23
62 | KNDGEVMKSVFKDRHCCART | -0.565 ± 0.48
63 | VRLGRWLFTFSANTDTLANM | -0.729 ± 1.1
64 | CFMDFQWHMRSHG | -0.265 ± 0.3
65 | QSQSSNCYDFIRTNDRKSIC | inactive
66 | SSIKSSKIGAGGSL | -0.213 ± 0.79

Row | Substance | amyloid nucleation score
67 | IMCRRG | 0.698 ± 0.52
68 | WSWRGS | 0.629 ± 0.52
69 | CGRWVSGAWDGCGCGLGVLG | -0.305 ± 0.55
70 | TMLSLSDISFQLKKILL | 2.56 ± 0.15
71 | LAFAILFPFGSLRDGST | 0.585 ± 0.8
72 | SCVINM | 1.55 ± 0.11
73 | ALCKMQLITSSYQGPATEDL | -0.168 ± 0.76
74 | ETVLFYSV | inactive
75 | KSEAGYA | 0.658 ± 0.51
76 | FYWVLMNYGQLCCWFW | 1.79 ± 0.2
77 | DYGEGLPNSMCCLVSFQ | 0.057 ± 1.1
78 | VKMMWNCSLVDALATRGNVV | 0.505 ± 0.54
79 | TSAPSKSLLLGVIIIGAFPD | inactive
80 | CHSLRILRPRIYSVQVMLIG | -0.01 ± 0.63
81 | CGLWASNSSTFRDFESNESN | -0.51 ± 0.63
82 | LALFALMLLLF | -0.055 ± 0.26
83 | GCCWEKSASRSAETYWSGRA | 3.06 ± 0.14
84 | GVLYWALLDGGVQRGQDMKL | 0.641 ± 0.62
85 | FVQSVGNMVSNSGRAGGMPG | 0.444 ± 0.31
86 | INMGMYDSNVCDA | -0.034 ± 0.65
